B1: TPR t1 (parent)
chain: GACCAAUCUGCCCUCAGAGCUCGAGAACAUCUUCGGAUGCAGAGGAGGCAGGCUUCGGUGGCGCGAUAGCGCCAACGUCCUCAACCUCCAAUGCAUCCCACCACAUGAUGAUGCCUGAAGAGCCUUGGUUUUUUG

Variants of: B1
Assay: polymerase ribozyme fitness, log enrichment relative to wild type (log ratio); higher = more active; in vitro selection for triplet polymerase activity
Method in brief: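 Input and output libraries were sequenced on Illumina after a single in vitro selection round, run in triplicate on PCR-built, transcribed mutant libraries of each subunit of a heterodimeric triplet polymerase ribozyme. Selection annealed libraries to a biotinylated primer, the partner subunit and triplets, incubated them frozen at −7 °C, then gel-excised extended constructs for streptavidin-bead capture and RT-PCR. Genotypes with ≥10 input reads and ≥1 read per output were kept. Fitness is the logarithm, taken in base 2, of genotype enrichment divided by wild-type enrichment, using inverse-variance-weighted replicate averages.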

Variant | polymerase ribozyme fitness (log ratio)
A27G G52A C79U | -2.15
A26C G47U C56U U112C | -5.64
A24G U112G | -1.29
A26G A105G | -4.04
A27U A50C | -3.87
A26G U133G | -2.68
A24G A26G A90C C115U | -2.12
C28G G71A A83G U87G A119U | -5.64
C28G G117A | -4.12
C28G G107C U109G | -6.09
A26G G71A A84C C89U G93C C114U | -6.05
C28G G69U A91G U116G | -5.08
A27U G36C | -3.53
A26C G39C C104U U106A G120A | -5.96
A26U U96A U116G A121G | -3.67
A26G G36U C82G | -4.05
C28A C62A | -5.73
A26G G60C C86G | -3.98
A26C G120C G127A | -5.53
A26C C53U U54A G60U | -5.26
G25U A26G | -3.22

Variant | polymerase ribozyme fitness (log ratio)
A27G U59C A68G C99U U112A | -5.37
C28A G60A G110U G122A | -0.649
A27C C56G U78C C80U U81A | -3.58
A27U C94G C99G C104U G110U C114G | -6.8
A24G C115U | -2.59
A27U C89U | -2.8
A26U U130A | -3.88
C28G U54G C62U | -3.83
A24U G61U | -6.34
A27C G44C C73G | -5.57
A27G U106G U112G | -1.51
C28G U96A C97G G117C | -8.14
G25U A121C | -4.83
A24G A90C | -3.03
C28G U96A | -3.94
A26G G61A C82A U112A U131C | -0.172
A24G G58U G61C | -1.68
C28G A41C C64U C115A | -2.93
A26C G60C | -6.06
A26G G69U C70A G113U | -4.8
A24G G61U C86G | -3.34

Variant | polymerase ribozyme fitness (log ratio)
A24G C34A C53U U87G U132A | -4.54
A26G G45A U78G C124U U129G | -4.5
C28G C73U A119G | -1.62
A26G C70G | -3.51
A27U U87C | -2.89
A27C C104U | -3.21
C28G C31U G58A G63A G117C | -6.83
A26C G61U U78C C80U A83G U116G | -6.77
A24G C49G | -1.9
A26G C40U G63C U81C U130A | -4.66
C28A U132C | -4.37
A24U G61U C88A G117C | -6.74
A24G U59A U78C C85G U106G | -3.94
A26U G52U C94G C114A | -7.17
A26U C53U | -3.26
C28A A83U G110U | 1.66
A24G G57A U78C C101A | -4.85
A26C G39U C124G | -4.33
G25A C40U G69C G93C C101U C104G C115U A118G | -7.63
A27G U129C | -3.02
G25A C28A C31G G63U A74G C99U | -7.56

Variant | polymerase ribozyme fitness (log ratio)
A27U G113U | -4.99
A24U G61U A91G G120U C124U G135A | -6.15
A27U C72G U78A | -3.94
A26C G117U A119U | -7.54
A27U G135C | -3.11
C28A C40G G44C G51A U112A | -6.79
A27G C70U C80A | -4.47
A26U G39C G47A C82A A118U | -4.78
A24U U112A | -4.52
G25U C56A | -4.45
G25U A46G | -6.02
C28A U112C U116G U130A U132C | -5.19
C28A A46U G77C A121C | -4.52
A26U C72A U129A | -4.07
A27G G128C | -4.95
G25U C64G C88A G110A G120C C123U | -6.08
A26G G77U | -2.79
A27G G71A C72U A95G | -4
A26G A29G A66U C72G U78A A118U | -3.89
A24U C124A | -3.28
A24G U55G C64U | -1.64

From the RNAGym collection of RNA variant scans (doi:10.1073/pnas.2313332121)
